From patent US20250134019A1, “TRIKETONE DIOXYGENASE VARIANTS FOR HERBICIDE TOLERANCE” (Monsanto Technology LLC, priority 2022, published 2025)

How the values were obtained:
[1] = Specific activity of purified TDO proteins, second hydroxylation of mesotrione; format: biochemical; details: FIG. 8
From the text: Activity was expressed as nmol/min/mg protein and was the mean of three separate assays on the same enzyme sample (technical reps).
To test the hypothesis, the four amino acids of sorghum TDO corresponding to amino acid positions 230, 301, 332, and 335 in rice TDO were replaced with those of rice TDO. The corn, rice, sorghum, and the modified sorghum TDO genes were cloned into a pET28 vector for E. coli expression with His6 tag in the N-terminus. Subsequently, the proteins were expressed and purified by affinity chromatography. BL21-CodonPlus (DE3)-RIPL E. coli cells (Stratagene) were used for expression. Cells transformed with expression vector were grown in autoinduction media (AIM) supplemented with 100 μg mL-1 kanamycin and 34 μg mL-1 chloramphenicol.
TDO proteins used in this study were expressed in AIM cells using an auto-induction system as described by Studier (2014). Briefly, the recombinant cultures were grown at 37° C. for 3 hours and then 20° C. for one or two days. Cells were harvested by centrifugation and frozen at −80° C. The pellet was resuspended in lysis buffer (Bper and Yper [Pierce] with ratio 3 to 1, 25 mM Tris-HCl, 300 mM NaCl, 10 mM imidazole, pH 8.0). 150 mM ferric ammonium citrate (1000X) was added to the lysate to a final concentration of 150 µM and incubated on ice for 20 minutes. The lysate was centrifuged to clarify the supernatant. Clear supernatant was loaded onto a 5 mL Ni column connected to AKTA Express (GE Healthcare). […] Protein concentrations were determined spectrophotometrically based on their calculated molar absorption extinction coefficients at 280 nm.
TDO activity was measured by the second hydroxylation of mesotrione. For routine activity measurements of TDO and determining the kinetic properties of the second hydroxylation, the continuous change in A330, which is specific to the second hydroxylation and subsequent non-enzymatic water removal (i.e. the conversion of hydroxy-mesotrione to oxy-mesotrione), was monitored. […] The reaction proceeded until the maximum A330 was obtained (usually 20-120 minutes depending upon the concentration of mesotrione) and the linear portion of the curve was determined by visual inspection. […]
For the activity calculation, aliquots of the reaction were removed at various time points during the reaction and heated at 95° C. to halt the reaction. The reaction mixtures were analyzed by HPLC and mass spectrophotometry. By product conversation followed by peak integration on HPLC, a linear plot was obtained and the extinction co-efficient delta between the substrate (mesotrione) and the second product (oxy-mesotrione) was obtained according to the equation ΔA330=(εp-εs)*bΔp where ΔA330 is the change of absorbance at 330 nm and b is the light path.

[2] = tested on: transgenic soybean plants; assay: Mesotrione injury of R0 transgenic soybean plants expressing TDO homologs; format: in vivo; details: promoter Constitutive 1, 3' UTR A; 210 g a.i./ha mesotrione at V3-V4, rated 7-14 days after treatment; mean of all tested events
Procedure: Plant expression vectors comprising the selected TDO homologs under the control of one of two constitutive promoters were transformed into soybean via an Agrobacterium tumefaciens-mediated method. Following Agrobacterium transformation, R0 transgenic soybean plants containing a single copy of the transgene were identified through molecular characterization and segregation analysis. Transgenic and wild-type (control) plants were grown in 6-inch pots filled with BM7 soilless mix in a growth chamber under the conditions of 28° C./23° C. (light/dark) and a 16 hr light/8 hr dark photoperiod. Plants were fertilized with 15-5-15 liquid fertilizer at the V3-V4 growth stage and treated with 210 g a.i./ha mesotrione (1X=105 g a.i./ha; Callisto®, Syngenta in 1% crop oil). Plants were visually rated 7-14 days after treatment on a scale of 0% to 100%, with 0%=no injury and 100%=plant death, relative to the wild-type controls. The results summarized in Table 2 represent the mean of all tested events (10-15) for each construct.

[3] = specific activity of second hydroxylation

Molecule	specific activity of the second hydroxylation ([1]; purified His6-tagged protein from E. coli)	% Injury [2] [%]	activity compared to the rice TDO protein [1, 3]	activity lower than rice TDO [1, 3]
Sb.TDO: TDO homolog from Sorghum bicolor, SEQ ID NO:6 (protein, Sorghum bicolor) MAGESWKVPTPVKDLAALVEEPPSQFVQREEDRPGSLMLAADMPDPLPIVDLDKMSTADEATKLRSALQTWGLFLATNHGIDVSLMEDLMKASREFFNQPLQERQKYSNLREGTRFQLEGYGSDPVIAQDHILDWSDRLQLKVEPEDERNLAQWPKHPESFRDLLHEYATKTKTVMVKILRAMAKTLELDEEDFIDQIGGRPQAYARFNYYPPCPRPELVLGIKAHSDGPLLTVLLVDREVGGLQIQRENKWFNVPSIPHALVINLGDSLEIMSNGIFKSPVHRVVTNAEKERISLAMLYAVQRDNVLEPAPGLLDEKRPAKYRRITEAHFLEGVKEHFSKGMRMIETLKI	not significantly different from the blank	35	–	–
SwM: Sb.TDO variant SwM, SEQ ID NO:48, substitutions P230T-A301S-L332R-V335I (protein, TDO variant sequence) MAGESWKVPTPVKDLAALVEEPPSQFVQREEDRPGSLMLAADMPDPLPIVDLDKMSTADEATKLRSALQTWGLFLATNHGIDVSLMEDLMKASREFFNQPLQERQKYSNLREGTRFQLEGYGSDPVIAQDHILDWSDRLQLKVEPEDERNLAQWPKHPESFRDLLHEYATKTKTVMVKILRAMAKTLELDEEDFIDQIGGRPQAYARFNYYPPCPRPELVLGIKAHSDGTLLTVLLVDREVGGLQIQRENKWFNVPSIPHALVINLGDSLEIMSNGIFKSPVHRVVTNAEKERISLAMLYSVQRDNVLEPAPGLLDEKRPAKYRRITEAHFRAGIKEHFSKGMRMIETLKI	–	–	about 17%	–
Zm.TDO: TDO homolog from Zea mays, SEQ ID NO:4 (protein, Zea mays) MADESWRVPTPVQELAATLEEPPSRYVLQEKDRRGSPLVADDMPEPLPVINLSRLSEDATEAAKLESALQSWGLVLVTNHGIETSLMDGVMDASREFFRQPLEEKQKYSNLIDGKRFQVEGYGNDRVATERQILNWNDRLHLKVAPEDERDYTHWPKHPESFRDVLHEYALETKRVRDGIFRATAKILELDEDHFVRLISDRAAAFARFNYYPPCPRPDLVNGVQPHSDAGVLTILLVDKDVRGLQVQRDGVWYNVPPMPYTLLINLGDIMEIMSNGILKSPVHRVVTNAEKERISLAVFYGVGAENALEPAAGLLDEKRPARYRKISMTDFIAGIHGQFSRGTRFIESLKI	–	15	–	about 30%
